Measured values as given in patent publication US20130079278A1 (Novo Nordisk, published 2013).
*1 amine or outer side, *2 acyl side, *3 side chain or, on linkers, in order; H or OH if unused. Where no end group is shown, it is not given here. Side-chain parts run from the residue outwards. The star is where a group is joined. X1 = 4‑(16-(1H-tetrazol-5-yl)hexadecanoylsulfamoyl)butanoyl, O=C(CCCCCCCCCCCCCCCc1nnn[nH]1)NS(=O)(=O)CCCC(=O)*; X2 = 4‑(16-(1H-tetrazol-5-yl)hexadecanoylsulfamoyl)butanoyl, O=C(CCCCCCCCCCCCCCCc1nn[nH]n1)NS(=O)(=O)CCCC(=O)*; C18 diacid = O=C(O)CCCCCCCCCCCCCCCCC(=O)*; C16 diacid = O=C(O)CCCCCCCCCCCCCCC(=O)*; γGlu = O=C(O)[C@H](CCC(=O)[*:2])N[*:1]; AEEA = NCCOCCOCC(=O)O

Target: glucagon receptor (human, UniProt P47871 26-477)
Assay: cell-based or functional assay

Chain of glucagon receptor (P47871 26-477): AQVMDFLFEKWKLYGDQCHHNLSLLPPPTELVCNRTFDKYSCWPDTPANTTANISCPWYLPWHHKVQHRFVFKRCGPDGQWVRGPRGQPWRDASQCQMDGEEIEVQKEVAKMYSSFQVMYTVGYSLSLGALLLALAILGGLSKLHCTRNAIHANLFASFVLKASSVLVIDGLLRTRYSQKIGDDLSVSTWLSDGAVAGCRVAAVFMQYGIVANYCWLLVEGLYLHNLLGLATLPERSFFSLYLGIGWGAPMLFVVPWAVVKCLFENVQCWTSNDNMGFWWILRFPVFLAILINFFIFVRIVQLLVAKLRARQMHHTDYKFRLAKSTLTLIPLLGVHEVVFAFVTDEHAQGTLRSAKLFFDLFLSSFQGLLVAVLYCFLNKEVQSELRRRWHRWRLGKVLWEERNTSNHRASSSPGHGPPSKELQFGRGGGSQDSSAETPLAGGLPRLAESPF

Assay (I) Glucagon [EC50] [pM]	Binder
140	HSQGTFTSDYSRYLESRRAQDFVK([γGlu-γGlu-AEEA-AEEA-γGlu-C16 diacid])WLLST
95	HSQGTFTSDYSRYLDLRRAQEFVK([γGlu-γGlu-AEEA-AEEA-γGlu-C18 diacid])WLLST
106	HSQGTFTSDYSRYLDARRAQDFVK([γGlu-γGlu-γGlu-γGlu-C16 diacid])WLLST
1630	HSQGTFTSDVSRYLESRRAQEFVK([γGlu-γGlu-AEEA-AEEA-γGlu-C18 diacid])WLEST
16	HSQGTFTSDYSRYLDARRAQDFVK([γGlu-γGlu-γGlu-C16 diacid])WLLST
134	HSQGTFTSDYSKYLESRRAQDFVK([γGlu-γGlu-AEEA-AEEA-γGlu-C18 diacid])WLLST-NH2 (N-terminus assumed; SMILES CC(C)C[C@H](NC(=O)[C@H](Cc1ccc(O)cc1)NC(=O)[C@H](CCCCN)NC(=O)[C@H](CO)NC(=O)[C@H](Cc1ccc(O)cc1)NC(=O)[C@H](CC(=O)O)NC(=O)[C@H](CO)NC(=O)[C@@H](NC(=O)[C@H](Cc1ccccc1)NC(=O)[C@@H](NC(=O)CNC(=O)[C@H](CCC(N)=O)NC(=O)[C@H](CO)NC(=O)[C@@H](N)Cc1c[nH]cn1)[C@@H](C)O)[C@@H](C)O)C(=O)N[C@@H](CCC(=O)O)C(=O)N[C@@H](CO)C(=O)N[C@@H](CCCNC(=N)N)C(=O)N[C@@H](CCCNC(=N)N)C(=O)N[C@@H](C)C(=O)N[C@@H](CCC(N)=O)C(=O)N[C@@H](CC(=O)O)C(=O)N[C@@H](Cc1ccccc1)C(=O)N[C@H](C(=O)N[C@@H](CCCCNC(=O)CC[C@H](NC(=O)CC[C@H](NC(=O)COCCOCCNC(=O)COCCOCCNC(=O)CC[C@H](NC(=O)CCCCCCCCCCCCCCCCC(=O)O)C(=O)O)C(=O)O)C(=O)O)C(=O)N[C@@H](Cc1c[nH]c2ccccc12)C(=O)N[C@@H](CC(C)C)C(=O)N[C@@H](CC(C)C)C(=O)N[C@@H](CO)C(=O)N[C@H](C(N)=O)[C@@H](C)O)C(C)C)
81	HSQGTFTSDYSKYLDVRRAQDFVK([γGlu-γGlu-AEEA-AEEA-γGlu-C18 diacid])WLLNT
169	HSQGTFTSDYSKYLESRRAQEFVK([γGlu-γGlu-γGlu-γGlu-C18 diacid])WLLST
156	HSQGTFTSDVSKYLDTRRAQEFVK([γGlu-AEEA-AEEA-γGlu-γGlu-C18 diacid])WLLST-NH2 (N-terminus assumed; SMILES CC(C)C[C@H](NC(=O)[C@H](Cc1c[nH]c2ccccc12)NC(=O)[C@H](CCCCNC(=O)CC[C@H](NC(=O)COCCOCCNC(=O)COCCOCCNC(=O)CC[C@H](NC(=O)CC[C@H](NC(=O)CCCCCCCCCCCCCCCCC(=O)O)C(=O)O)C(=O)O)C(=O)O)NC(=O)[C@@H](NC(=O)[C@H](Cc1ccccc1)NC(=O)[C@H](CCC(=O)O)NC(=O)[C@H](CCC(N)=O)NC(=O)[C@H](C)NC(=O)[C@H](CCCNC(=N)N)NC(=O)[C@H](CCCNC(=N)N)NC(=O)[C@@H](NC(=O)[C@H](CC(=O)O)NC(=O)[C@H](CC(C)C)NC(=O)[C@H](Cc1ccc(O)cc1)NC(=O)[C@H](CCCCN)NC(=O)[C@H](CO)NC(=O)[C@@H](NC(=O)[C@H](CC(=O)O)NC(=O)[C@H](CO)NC(=O)[C@@H](NC(=O)[C@H](Cc1ccccc1)NC(=O)[C@@H](NC(=O)CNC(=O)[C@H](CCC(N)=O)NC(=O)[C@H](CO)NC(=O)[C@@H](N)Cc1c[nH]cn1)[C@@H](C)O)[C@@H](C)O)C(C)C)[C@@H](C)O)C(C)C)C(=O)N[C@@H](CC(C)C)C(=O)N[C@@H](CO)C(=O)N[C@H](C(N)=O)[C@@H](C)O)
357	HSQGTFTSDYSRYLDLRRAQDFVK([γGlu-γGlu-AEEA-AEEA-X1])WLLST
289	HSQGTFTSDYSRYLESRRAQEFVK([γGlu-γGlu-AEEA-AEEA-γGlu-C18 diacid])WLLST
80	HSQGTFTSDVSKYLDTRRAQEFVK([AEEA-AEEA-γGlu-γGlu-γGlu-C18 diacid])WLLST
105	HSHGTFTSDYSKYLDSRRAQDFVK([γGlu-γGlu-AEEA-AEEA-γGlu-C18 diacid])WLLNT
682	HSQGTFTSDYSKYLESRRAQDFVK([γGlu-γGlu-AEEA-AEEA-γGlu-C18 diacid])WLEST
517	HSQGTFTSDYSKYLESRRAQDFVK([γGlu-γGlu-AEEA-AEEA-γGlu-C18 diacid])WLLQT
70	HSQGTFTSDYSKYLDARRAQDFVK([γGlu-γGlu-AEEA-AEEA-γGlu-C18 diacid])WLEST

Assay (I) Glucagon [EC50] [pM]	Binder
71	HSQGTFTSDYSKYLESRRAQDFVK([γGlu-γGlu-AEEA-AEEA-γGlu-C16 diacid])WLLST
118	HSQGTFTSDVSKYLESRRAQEFVK([γGlu-γGlu-γGlu-γGlu-C18 diacid])WLLST
231	HSQGTFTSDYSRYLDLRRAQDFVK([γGlu-γGlu-AEEA-AEEA-γGlu-X2])WLLST
148	HSQGTFTSDYSRYLESRRAQEFVK([γGlu-γGlu-γGlu-γGlu-C18 diacid])WLLST
362	HSQGTFTSDYSKYLESRRAQDFVK([γGlu-γGlu-AEEA-γGlu-X1])WLLST
204	HSQGTFTSDYSRYLDLRRAQDFVK([γGlu-γGlu-AEEA-AEEA-γGlu-C18 diacid])WLLQT
109	HSQGTFTSDYSRYLDLRRAQDFVK([γGlu-γGlu-γGlu-γGlu-C16 diacid])WLLST
395	HSQGTFTSDYSKYLESRRAQDFVK([γGlu-γGlu-AEEA-X1])WLLST
77	HSHGTFTSDYSKYLDSKRAQEFVK([γGlu-γGlu-AEEA-γGlu-C18 diacid])WLLST
99	HSQGTFTSDYSRYLDIRRAQEFVK([γGlu-γGlu-AEEA-AEEA-γGlu-C18 diacid])WLEST
136	HSQGTFTSDYSRYLDLRRAQDFVK([γGlu-γGlu-AEEA-AEEA-γGlu-C18 diacid])WLEST
192	HSQGTFTSDYSKYLDARRAQDFVK([γGlu-γGlu-AEEA-AEEA-γGlu-C18 diacid])WLLQT
72	HSQGTFTSDYSRYLESRRAQEFVK([γGlu-γGlu-AEEA-AEEA-γGlu-C16 diacid])WLLST
176	HSQGTFTSDVSRYLDTRRAQEFVK([γGlu-AEEA-AEEA-γGlu-γGlu-C18 diacid])WLLST
88	HSQGTFTSDVSKYLDLRRAQEFVK([γGlu-AEEA-AEEA-γGlu-γGlu-C18 diacid])WLLST
1090	HSQGTFTSDYSRYLESRRAQEFVK([γGlu-γGlu-AEEA-AEEA-γGlu-C18 diacid])WLEST
